This note sets out measurements from patent publication CN114349855A (BAISIS MEDICAL DIAGNOSIS SCIENCE AND TECH BEIJING LIMITED …, dated 2022).

B1: 抗体 克隆号7D7G3D4 (antibody, V domains shown)
VH: EVQLVESGGGLVQPGGSLRLSCAASGLTVSSNHMSWVRQAPGKGLEWVSIIYSGGSTYYADSVKGRFTISRDNSKNTLYLQMDSLRAEDTTVYYCARAQGGWELPGAGYYYFNGMDFWGQGTTVTVSS
VL: DIQMTQSPSSLSASVGDRVTITCRASQSISTYLNWYQQKPGKAPKLLIYAASNLQSGVPSRFSGSASGTDFTLTISSLQPEDFATYFCQQSYSTSFTFGPGTKVDIK
B2: 抗体 克隆号9A5D9 22G3 (antibody, V domains shown)
VH: EVQLVESGGGLVKPGGSLRLSCAASGFTFSSYSMNWVRQAPGKGLEWVSSISRSSSYIYYADSVMGRFTISRDNAKNSLYLQMNSLRADDTAVYYCARDRGSGNYYVDGLDIWGQGTMVTVSS
VL: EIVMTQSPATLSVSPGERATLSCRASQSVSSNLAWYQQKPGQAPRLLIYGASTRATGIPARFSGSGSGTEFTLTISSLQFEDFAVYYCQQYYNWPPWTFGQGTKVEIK
B3: 抗体 克隆号9A5F6 23F1 (antibody, V domains shown)
VH: QVQLVESGGGVVQPGRSLRLSCAASGFTFSSYAMYWVRQAPGKGLECVAGISYDGSNKYYADSVKGRFTISRENSKNTLYLQMNSLISEDTAVYYCARAEWDYWGQGTLVTVSS
VL: SYELTQPSSVSVSPGQTARITCSGDVLAKKYARWFQQKPGQAPVLVIYKDSERPSGIPERFSGSSSGTTVTLTISGAQVEDEADYYCYSAADNNLGVFGGGTKL

For the test, the target named is T1, 新型冠状病毒野生型Spike蛋白 (新型冠状病毒 (SARS-CoV-2) 野生型, UniProt P0DTC2 16-1213).
T1 construct: also called 野生型S蛋白
Put plainly: ELISA, S protein coated at 2 μg/mL. In general terms: In an ELISA, binding on a coated surface is turned into a signal by an enzyme label.
For B1, the binding result is “no binding (tested: 1 μg/mL)”.
For the molecule B2, the binding result is reported as “no binding (tested: 1 μg/mL)”.
Take B3: the binding result is “no binding (tested: 1 μg/mL)”.
